From US20120156803A1

Legend:
[1] = target: S. frugiperda (FAW) BBMV proteins / receptor(s) (brush border membrane vesicles from wild type, Cry1Fa-sensitive larvae) (Spodoptera frugiperda); experiment: pull-down competition on FAW BBMVs; ^125I-Cry1Fa remaining bound with 1000 nM unlabeled Cry1Ab competitor
[2] = target: O. nubilalis (ECB) BBMV proteins (brush border membrane vesicles from wild type, Cry1Fa-sensitive larvae) (Ostrinia nubilalis); experiment: pull-down assay on ECB BBMVs, no competitor, phosphor-imaging densitometry
[3] = target: S. frugiperda (FAW) BBMV proteins / receptor(s) (brush border membrane vesicles from wild type, Cry1Fa-sensitive larvae) (Spodoptera frugiperda); experiment: pull-down assay on FAW BBMVs, no competitor, phosphor-imaging densitometry
[4] = target: BBMVs prepared from Cry1Fa-resistant O. nubilalis (rECB) larvae (Ostrinia nubilalis); experiment: pull-down assay on rECB BBMVs, no competitor, phosphor-imaging densitometry
[5] = target: BBMVs prepared from Cry1Fa-resistant S. frugiperda (rFAW) larvae (Spodoptera frugiperda); experiment: pull-down assay on rFAW BBMVs, no competitor, phosphor-imaging densitometry
[6] = target: O. nubilalis (ECB) BBMV proteins (brush border membrane vesicles from wild type, Cry1Fa-sensitive larvae) (Ostrinia nubilalis); experiment: saturation binding of radioligand (0.5-20 nM) to 150 ug/mL ECB BBMV proteins, centrifugation and gamma counting
[7] = target: S. frugiperda (FAW) BBMV proteins / receptor(s) (brush border membrane vesicles from wild type, Cry1Fa-sensitive larvae) (Spodoptera frugiperda); experiment: pull-down competition on FAW BBMVs; ^125I-Cry1Fa remaining bound with 1000 nM unlabeled Cry1Ca competitor
[8] = target: O. nubilalis (ECB) BBMV proteins (brush border membrane vesicles from wild type, Cry1Fa-sensitive larvae) (Ostrinia nubilalis); experiment: pull-down competition on ECB BBMVs; ^125I-Cry1Fa remaining bound with 1000 nM unlabeled Cry1Fa competitor
[9] = target: S. frugiperda (FAW) BBMV proteins / receptor(s) (brush border membrane vesicles from wild type, Cry1Fa-sensitive larvae) (Spodoptera frugiperda); experiment: pull-down competition on FAW BBMVs; ^125I-Cry1Fa remaining bound with 1000 nM unlabeled Cry1Fa competitor
[10] = target: BBMVs prepared from Cry1Fa-resistant O. nubilalis (rECB) larvae (Ostrinia nubilalis); experiment: pull-down competition on rECB BBMVs; ^125I-Cry1Fa remaining bound with 1000 nM unlabeled Cry1Fa competitor

Substance: Cry1Ab core toxin protein (from UniProt P0A370 29-607) (ligand)
- Relative Amounts of radio-iodinated Cry1Fa Protein Bound [1]: -4%

Substance: ^125I radiolabeled fluorescein-Cry1Fa core toxin protein (trypsin-truncated) (from UniProt Q03746 1-603) (ligand)
- Relative Amounts of radio-iodinated Cry1Fa Protein Bound [2]: 100%
- Relative Amounts of radio-iodinated Cry1Fa Protein Bound [3]: 100%
- Relative Amounts of radio-iodinated Cry1Fa Protein Bound [4]: 64%
- Relative Amounts of radio-iodinated Cry1Fa Protein Bound [5]: 10%
- Bmax [6]: 37 fmol/mg
- Kd [6]: 11 nM

Substance: Cry1Ca core toxin protein (from UniProt P0A373) (ligand)
- Relative Amounts of radio-iodinated Cry1Fa Protein Bound [7]: 50%

Substance: non-radioactive (unlabeled) Cry1Fa core toxin protein (trypsin-truncated) (from UniProt Q03746 1-603) (ligand)
- Relative Amounts of radio-iodinated Cry1Fa Protein Bound [8]: 31%
- Relative Amounts of radio-iodinated Cry1Fa Protein Bound [9]: 0%
- Relative Amounts of radio-iodinated Cry1Fa Protein Bound [10]: 51%
